Test results as given in patent publication US20210275683A1 (SILVERBACK THERAPEUTICS, published 2021).
Substitutions are numbered along the chain they refer to. In names and notes the source's numbering stands.

T1: Nectin-4 on MDA-MB-175-VII tumor cells (UniProt Q96NY8 32-510, limits assumed)
T1 sequence (looked up): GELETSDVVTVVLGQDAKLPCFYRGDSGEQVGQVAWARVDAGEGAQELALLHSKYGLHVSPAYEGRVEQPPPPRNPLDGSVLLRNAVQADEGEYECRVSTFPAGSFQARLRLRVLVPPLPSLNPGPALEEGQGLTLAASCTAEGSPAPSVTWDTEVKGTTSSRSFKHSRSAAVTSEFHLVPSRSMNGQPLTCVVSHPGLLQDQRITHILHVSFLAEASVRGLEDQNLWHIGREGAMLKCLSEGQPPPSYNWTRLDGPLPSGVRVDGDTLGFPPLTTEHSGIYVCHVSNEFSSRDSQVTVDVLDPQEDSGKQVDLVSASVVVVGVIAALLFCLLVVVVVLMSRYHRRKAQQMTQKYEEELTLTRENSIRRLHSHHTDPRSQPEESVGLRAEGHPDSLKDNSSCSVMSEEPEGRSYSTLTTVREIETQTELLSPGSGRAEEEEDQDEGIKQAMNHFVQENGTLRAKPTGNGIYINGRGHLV

T2: human Nectin-4 on transfected HEK-293 cells (human, UniProt Q96NY8 32-510)
T2 construct: whole, on cells; also called HEK-293 cells transfected with human Nectin-4; Nectin-4-expressing HEK-293 cells
T2 sequence (looked up): T1 sequence (looked up)

T3: cynomolgus Nectin-4 on transfected HEK-293 cells (cynomolgus, UniProt A0A2K5WES1 32-510)
T3 construct: whole, on cells; also called HEK-293 cells transfected with cynomolgus Nectin-4
T3 sequence: T1 sequence (looked up) with V39A, I230V, A437T

T4: huNectin-1 ECD-hFc (human, UniProt Q15223 31-355)
T4 construct: extracellular domain; Bought (Sino Biological); also called hFc-tagged human Nectin-1 ECD dimeric protein; not shown: human Fc tag
T4 sequence (looked up): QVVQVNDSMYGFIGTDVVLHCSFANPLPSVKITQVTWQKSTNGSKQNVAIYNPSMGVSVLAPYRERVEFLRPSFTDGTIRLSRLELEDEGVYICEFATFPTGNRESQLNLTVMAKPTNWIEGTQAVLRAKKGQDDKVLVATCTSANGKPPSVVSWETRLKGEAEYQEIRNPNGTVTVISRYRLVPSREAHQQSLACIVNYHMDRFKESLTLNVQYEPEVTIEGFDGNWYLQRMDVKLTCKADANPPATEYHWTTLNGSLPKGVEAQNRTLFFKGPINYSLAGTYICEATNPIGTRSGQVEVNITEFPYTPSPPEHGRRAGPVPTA

T5: huNectin-2 ECD-hFc (human, UniProt Q92692 32-360)
T5 construct: extracellular domain; Bought (Sino Biological); also called hFc-tagged human Nectin-2 ECD dimeric protein; not shown: human Fc tag
T5 sequence (looked up): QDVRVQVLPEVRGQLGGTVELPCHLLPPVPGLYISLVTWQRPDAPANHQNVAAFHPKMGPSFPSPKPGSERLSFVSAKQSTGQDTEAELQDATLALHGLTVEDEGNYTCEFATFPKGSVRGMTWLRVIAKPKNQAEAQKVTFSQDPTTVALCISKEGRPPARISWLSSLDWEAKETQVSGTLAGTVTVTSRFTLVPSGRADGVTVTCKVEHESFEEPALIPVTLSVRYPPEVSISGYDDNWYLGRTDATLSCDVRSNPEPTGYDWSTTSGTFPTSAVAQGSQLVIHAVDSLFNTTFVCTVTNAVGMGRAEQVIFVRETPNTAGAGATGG

T6: huNectin-4 ECD-hFc (human, UniProt Q96NY8 32-349)
T6 construct: extracellular domain; Bought (Sino Biological); also called hFc-tagged human Nectin-4 ECD dimeric protein; human Nectin-4 ECD; not shown: human Fc tag
T6 sequence (looked up): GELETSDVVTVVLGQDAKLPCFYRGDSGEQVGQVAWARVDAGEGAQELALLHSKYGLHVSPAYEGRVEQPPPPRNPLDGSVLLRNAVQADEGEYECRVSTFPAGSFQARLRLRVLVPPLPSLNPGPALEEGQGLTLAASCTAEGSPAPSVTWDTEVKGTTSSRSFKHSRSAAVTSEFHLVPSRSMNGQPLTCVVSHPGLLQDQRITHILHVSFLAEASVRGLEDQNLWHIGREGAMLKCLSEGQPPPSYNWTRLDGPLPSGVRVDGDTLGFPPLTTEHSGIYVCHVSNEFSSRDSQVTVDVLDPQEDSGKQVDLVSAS

B1: hzD6.2C-Compound 2.14 (anti-Nectin-4-TLR8 agonist immunoconjugate) (antibody, V domains shown)
VH: EVQLVESGGGLVQPGGSLRLSCAASGFTFSNYDMSWVRQAPGKGLEWVATISSGGSYTYYVDSVKGRFTISRDNAKNSLYLQMNSLRAEDTAVYYCARQELGSYYAMDYWGQGTTVTVSS
VL: DIVMTQTPLSLPVTPGEPASISCRSSQSIVHSNANTYLEWYLQKPGQSPQLLIYKVSNRFSGVPDRFSGSGSGTDFTLKISRVEAEDVGVYYCFQGSHVPYTFGGGTKVEIKR
notes: hzD6.2C conjugated to linker-TLR8 agonist Compound 2.14
B2: humanized D6C mAb with hzD6.1C VL (I2V), human IgG1 / human kappa (antibody, V domains shown)
VH: B1 VH
VL: B1 VL with I2V, A34G
notes: also called hzD6.IC
B3: hzD6.1C-Compound 2.14 (anti-Nectin-4-TLR8 agonist immunoconjugate) (antibody, V domains shown)
VH: B1 VH
VL: B1 VL with I2V, A34G
notes: hzD6.1C conjugated to linker-TLR8 agonist Compound 2.14
B4: D6C IgG1-Compound 2.14 (parental antibody TLR8 agonist conjugate) (antibody, V domains shown)
VH: EVMLVESGGALVKPGGSLKLSCVASGFTFSNYDMSWVRQTPEKRLEWVATISSGGSYTYYVDSVKGRFTISRDNARNTLHLQMSSLRSKDTAMYYCARQELGSYYAMDYWGQGTSVTVSS
VL: DVVMTQTPLSLPVSLGDQASISCRSSQSIVHSNGNTYLEWYLQKPGQSPKLLIYKVSNRFSGVPDRFSGSGSGTDFTLKISRVEAEDLGVYYCFQGSHVPYTFGGGTKLEIK
notes: IgG1
B5: D6C parental chimeric anti-Nectin-4 antibody (D6C IgG1) (antibody, V domains shown)
VH: B4 VH
VL: B4 VL
notes: Called the parental chimeric antibody; also called chimeric D6C
B6: humanized D6C mAb with hzD6.2C VL (G34A), human IgG1 / human kappa (antibody, V domains shown)
VH: B1 VH
VL: B1 VL
notes: also called hzD6.2C mAb

Experiments:
[1] = target: T1, Nectin-4 on MDA-MB-175-VII tumor cells; assay: cell-based or functional assay
[2] = target: T1, Nectin-4 on MDA-MB-175-VII tumor cells; assay: flow cytometry on MDA-MB-175-VII cells (Nectin-4 expressing tumor cell line), anti-huIgG1-PE secondary, MFI (Geo Mean)
Method: (§1) After incubations, cells were washed with FW and then analyzed on a flow cytometer.

[3] = target: T2, human Nectin-4 on transfected HEK-293 …; assay: flow cytometry on HEK-293 cells transfected with human Nectin-4, anti-huIgG1-PE secondary, MFI (Geo Mean)
Method: as §1

[4] = target: T3, cynomolgus Nectin-4 on transfected …; assay: flow cytometry on HEK-293 cells transfected with cynomolgus Nectin-4, anti-huIgG1-PE secondary, MFI (Geo Mean)
Method: as §1

[5] = target: T4, huNectin-1 ECD-hFc; assay: BLI (Octet Red 96), biotinylated hzD6.2C on streptavidin biosensors, dimeric ECD-hFc in solution
Method: (§2) Analysis of hzD6.2C monoclonal antibody (mAb) for binding to human Nectin-1, Nectin-2, Nectin-3, and Nectin-4 extracellular domains (ECDs) was performed using Octet® Red 96 instrument (ForteBio, Inc.). Biotinylated hzD6.2C mAb was immobilized on streptavidin biosensors and incubated with hFc-tagged human Nectin-1, -2, -3, and -4 ECD dimeric proteins (Sino Biological) at varying concentrations ranging from 1.2 nM to 300 nM in PBS/1% BSA/0.2% Tween 20. The experimental measurements were performed as follows: (1) baseline acquisition (30 s); (2) biotinylated hzD6.2C mAb loading onto streptavidin biosensor (120 s); (3) second baseline acquisition (30 s); (4) association of interacting dimeric Nectin 1/2/3/4 ECD proteins for kₒₙ measurement (90 s); and (5) dissociation of interacting dimeric ECDs for koff measurement (180 s). The interacting dimeric Nectin ECD proteins were used at 5-6 concentrations of 3-fold concentration series. Data were analyzed using Octet® Data Analysis Sofware 9.0 (ForteBio, Inc.) and fitted to the 1:1 binding model. Equilibrium dissociation constants (KD) were calculated by the ratio of […].

[6] = target: T5, huNectin-2 ECD-hFc; assay: as above
Method: as §2

[7] = target: T7, huNectin-3 ECD-hFc (human, UniProt Q9NQS3 58-404); assay: as above
T7 construct: extracellular domain; Bought (Sino Biological); also called hFc-tagged human Nectin-3 ECD dimeric protein; not shown: human Fc tag
T7 sequence (Q9NQS3 58-404): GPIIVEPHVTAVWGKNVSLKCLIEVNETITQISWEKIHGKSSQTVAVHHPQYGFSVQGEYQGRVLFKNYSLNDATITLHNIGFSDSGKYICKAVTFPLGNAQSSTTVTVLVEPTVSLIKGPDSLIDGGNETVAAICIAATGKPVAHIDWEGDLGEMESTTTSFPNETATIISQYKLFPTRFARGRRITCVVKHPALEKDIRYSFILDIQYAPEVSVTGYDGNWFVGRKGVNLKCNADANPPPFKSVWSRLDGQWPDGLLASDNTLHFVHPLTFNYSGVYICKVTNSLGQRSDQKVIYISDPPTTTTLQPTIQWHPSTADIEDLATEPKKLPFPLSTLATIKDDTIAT
Method: as §2

[8] = target: T6, huNectin-4 ECD-hFc; assay: BLI (Octet Red 96), biotinylated hzD6.2C on streptavidin biosensors, dimeric ECD-hFc in solution, 1:1 model, KD with avidity
Method: as §2

Row | Binder | TNF-α production from human PBMCs co-cultured with MDA-MB-175-VII cells, EC50 [1] [nM] | EC50 [2] [µg/mL] | EC50 [3] [µg/mL] | EC50 [4] [µg/mL] | binding result [5] | binding result [6] | binding result [7] | Kd [8] [nM]
1 | B1 | 0.37 | 0.0095 | 0.034 | 0.016 |  |  |  | 
2 | B2 |  | 0.0097 | 0.02 | 0.016 |  |  |  | 
3 | B3 | 0.33 | 0.0086 | 0.069 | 0.023 |  |  |  | 
4 | B4 | 0.83 | 0.011 | 0.049 | 0.019 |  |  |  | 
5 | B5 |  | 0.01 | 0.03 | 0.018 |  |  |  | 
6 | B6 |  | 0.012 | 0.014 | 0.017 | no binding (tested: 1.2 nM to 300 nM) | no binding (tested: 1.2 nM to 300 nM) | no binding (tested: 1.2 nM to 300 nM) | < 0.001
